Key:
[1] = target: T1, Recombinant His-tagged HP1γ (human, UniProt Q13185 1-183); test: pull-down; His-tagged HP1γ forms incubated with GST-KDM2A fragments in 300 mM NaCl, 50 mM Na-phosphate pH 7.0, 4 °C 1 h; collected on TALON resin (1% NP40 washes); SDS-PAGE; settings: both partners purified
T1 construct: HP1γ, human; the cDNA used encodes 183 amino acids; pCold I vector; also called His-HP1γ; His-tag HP1γ; source: E. coli DH5α (pCold I), isolated with TALON His-tag resin, dialysed

[2] = target: T2, Recombinant His-tagged HP1γ (CSD) (human, UniProt Q13185 110-183); test: as above; settings: both partners purified
T2 construct: HP1γ, human, chromoshadow domain construct, amino acids 110-183; Limits 110-183 are those printed for the HP1γ (CSD) cDNA; the His-tag plasmids are described only as 'His-tag HP1γ and its mutants'; also called CSD of HP1γ; His-HP1γ mutant; source: E. coli DH5α (pCold I), isolated with TALON His-tag resin, dialysed
T2 sequence (Q13185 110-183): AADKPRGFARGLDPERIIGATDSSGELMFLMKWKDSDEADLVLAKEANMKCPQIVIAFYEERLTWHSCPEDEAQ

T1 sequence (Q13185 whole entry, the tested form may be a part): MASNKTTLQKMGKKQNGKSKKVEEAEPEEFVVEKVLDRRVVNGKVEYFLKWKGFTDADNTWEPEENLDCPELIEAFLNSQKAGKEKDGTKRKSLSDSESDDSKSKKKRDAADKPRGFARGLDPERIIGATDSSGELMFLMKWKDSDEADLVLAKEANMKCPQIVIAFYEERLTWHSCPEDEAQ

B1: recombinant KDM2A fragment (amino acids 785–817) fused with GST (domain or fragment, UniProt Q9Y2K7 785-817, looked up)
chain: ELSEVEKAKIRGSYLTVTLQRPTKELHGTSIVP
notes: also called GST-KDM2A fragment; source: E. coli DH5α (pGEX-3X), isolated on glutathione-Sepharose, dialysed
binding result [1]: binds | binding result [2]: binds

Source: PMC6677663, “KDM2A-dependent reduction of rRNA transcription on glucose starvation requires HP1 in cells, including triple-negative breast cancer cells” (Oncotarget, 2019)
